Data from patent US20230374088A1 (GENERAL HOSPITAL, published 2023).
Values belong to the binder of their own block, whether it stands above or below them.

Legend:
c-Myc-Gli2 (595-1568aa) = target: T1, c-Myc-Gli2 (595-1568aa) (human, UniProt P10070 595-1568); experiment: pull-down on anti-FLAG beads, anti-c-myc blot, Expi293F cells
T1 construct: the end of the construct is meant as the C-terminus of the protein; also called C-terminal half of Gli2; not shown: c-myc tag from pCMV-BICEP-4 (MCS2), N-terminal by the name
T1 sequence (looked up): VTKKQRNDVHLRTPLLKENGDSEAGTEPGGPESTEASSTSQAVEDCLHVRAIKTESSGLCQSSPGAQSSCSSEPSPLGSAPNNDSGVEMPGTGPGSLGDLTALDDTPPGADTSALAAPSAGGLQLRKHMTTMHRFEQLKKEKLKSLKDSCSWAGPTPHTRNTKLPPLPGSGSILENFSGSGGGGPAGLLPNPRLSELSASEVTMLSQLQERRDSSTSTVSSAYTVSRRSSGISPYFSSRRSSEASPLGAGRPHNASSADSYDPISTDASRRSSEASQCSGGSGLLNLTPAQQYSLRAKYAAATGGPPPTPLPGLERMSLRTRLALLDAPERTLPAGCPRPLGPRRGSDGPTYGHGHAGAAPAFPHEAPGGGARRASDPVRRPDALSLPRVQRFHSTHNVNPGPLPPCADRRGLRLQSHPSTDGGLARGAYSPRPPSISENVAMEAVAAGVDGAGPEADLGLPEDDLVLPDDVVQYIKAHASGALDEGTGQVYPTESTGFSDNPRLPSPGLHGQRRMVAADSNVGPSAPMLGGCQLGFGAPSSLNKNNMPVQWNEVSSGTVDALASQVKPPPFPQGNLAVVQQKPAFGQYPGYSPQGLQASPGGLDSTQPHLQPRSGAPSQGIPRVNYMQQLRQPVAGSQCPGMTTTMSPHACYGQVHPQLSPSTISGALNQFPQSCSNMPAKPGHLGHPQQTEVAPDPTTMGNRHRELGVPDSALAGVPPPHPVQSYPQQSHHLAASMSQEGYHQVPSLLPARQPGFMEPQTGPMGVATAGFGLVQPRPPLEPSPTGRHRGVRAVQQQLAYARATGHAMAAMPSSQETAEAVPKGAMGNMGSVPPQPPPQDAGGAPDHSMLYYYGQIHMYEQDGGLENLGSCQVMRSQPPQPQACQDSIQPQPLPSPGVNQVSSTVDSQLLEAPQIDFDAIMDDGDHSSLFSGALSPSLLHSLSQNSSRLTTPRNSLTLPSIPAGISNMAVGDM
Excerpt: (§1) Immunoprecipitation (IP) using anti-FLAG magnetic beads. Input (cell lysate), FT (flow through), wash and beads samples were immunoblotted (IB) with anti c-Myc antibody to detect Gli2. […] The blots are representative images of a minimum of three repeats. Gli2-ZF mutants are as follows: ZF2-mut (H493A, R496A), ZF3-mut (H503A, R516A, K521A), ZF4-mut (R550A, K552A, R556A). Kif7-CC mutants are as follows: S1-mut (E500A, E501A, E502A, D505A), S2-mut (E511A, E515A), S3-mut1 (E526A, E529A) and S3-mut2 (E530A, R535A).
(§2) To narrow down the residues that participate in binding, we analyzed the model of the Kif7-SCC:Gli2-ZF complex using PDBsum server (De Beer et al., Nucleic acids research, 42, D292-D296, 2014). We performed alanine scanning mutagenesis of the charged residues on Gli2-ZF that came up as part of the binding interface in the PDBsum analysis and analyzed their binding with pull-down assay (FIG. 3D). […] We systematically mutated the residues to alanine and performed the pull-down assay with Gli2-ZF.

Kif7-DM (1-543aa) = target: T2, Kif7-DM (1-543aa) (human, UniProt Q2M1P5 1-543); experiment: cryo-EM of microtubule-bound Kif7-DM with AMP-PNP, 3.9 Å
T2 construct: As used for cryo-EM, without GFP; Expressed with a TEV-cleavable N-terminal 6xHis-SUMOstar tag; also called Kif7 dimer; dimeric Kif7
T2 sequence: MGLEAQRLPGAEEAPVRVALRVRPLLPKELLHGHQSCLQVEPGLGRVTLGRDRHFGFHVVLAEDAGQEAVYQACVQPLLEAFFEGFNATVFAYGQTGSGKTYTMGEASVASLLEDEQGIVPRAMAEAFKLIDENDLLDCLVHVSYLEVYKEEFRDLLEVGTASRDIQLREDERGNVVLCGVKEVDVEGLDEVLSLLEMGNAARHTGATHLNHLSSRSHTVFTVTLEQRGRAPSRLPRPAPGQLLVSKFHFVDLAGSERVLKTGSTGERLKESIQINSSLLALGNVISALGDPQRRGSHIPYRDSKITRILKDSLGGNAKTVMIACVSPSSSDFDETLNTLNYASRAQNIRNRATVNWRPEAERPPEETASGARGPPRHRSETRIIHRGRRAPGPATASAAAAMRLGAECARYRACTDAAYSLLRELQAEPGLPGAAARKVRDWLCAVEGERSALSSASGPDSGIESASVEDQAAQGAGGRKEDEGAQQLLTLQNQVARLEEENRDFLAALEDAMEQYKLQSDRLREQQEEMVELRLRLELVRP
Method: For grid preparation, all Kif7-GIi2 preparations were diluted using BRB80 (80 mM 1,4-piperazinediethanesulfonic acid [PIPES], pH 6.8, 1 mM MgCl₂, 1 mM ethylene glycol tetraacetic acid [EGTA]). Porcine brain microtubules were prepared from frozen aliquots of 5 mg/ml tubulin (Cytoskeleton, Denver, CO) in polymerization buffer (BRB80; 80 mM PIPES, pH 6.8, 1 mM EGTA, 2 mM MgCl₂, 3 mM GMP-CPP, 10% dimethyl sulfoxide (DMSO)) at 37° C. for 2-3 hours. The polymerized microtubules were then incubated at room temperature for several hours or overnight before use. The following day or several hours later the microtubules were spun down on a bench top centrifuge 14.00 RPM 10 min to pellet. The pellet was resuspended in polymerization buffer without DMSO. The Kif7 dimer and monomer preparations were made by mixing the Kif7 with the GIi2 or GIi2-SNAP for 1 hour prior to incubation with the microtubules. Kif7-dimer (0.36 mg/ml) plus GIi2 (0.2 mg/ml) in BRB plus 2 mM ADP, 2 mM MgcI2, Kif7-monomer (0.45 mg/mL) or Kif7 dimer plus GIi2_SNAP (0.30 mg/mL) plus BRB80 with 1 mM AMPPNP and 1 mM MgCl₂. All microtubule samples were prepared on 1.2/1.3 400-mesh grids (Electron Microscopy Services) Grids were glow-discharged before sample application. The cryo-samples were prepared using a manual plunger, which was placed in a homemade humidity chamber that varied between 80 and 90% relative humidity. […]

Kif27-DM-GFP (1-580aa) = target: T3, Kif27-DM-GFP (1-580aa) (human, UniProt Q86VH2 1-580); experiment: TIRF microscopy on microtubules; 100 nM Gli2-ZF-SNAP-Alexa647 with 100 nM kinesin
T3 construct: range 1-580; Called dimeric; not shown: GFP tag, C-terminal by the name
T3 sequence (looked up): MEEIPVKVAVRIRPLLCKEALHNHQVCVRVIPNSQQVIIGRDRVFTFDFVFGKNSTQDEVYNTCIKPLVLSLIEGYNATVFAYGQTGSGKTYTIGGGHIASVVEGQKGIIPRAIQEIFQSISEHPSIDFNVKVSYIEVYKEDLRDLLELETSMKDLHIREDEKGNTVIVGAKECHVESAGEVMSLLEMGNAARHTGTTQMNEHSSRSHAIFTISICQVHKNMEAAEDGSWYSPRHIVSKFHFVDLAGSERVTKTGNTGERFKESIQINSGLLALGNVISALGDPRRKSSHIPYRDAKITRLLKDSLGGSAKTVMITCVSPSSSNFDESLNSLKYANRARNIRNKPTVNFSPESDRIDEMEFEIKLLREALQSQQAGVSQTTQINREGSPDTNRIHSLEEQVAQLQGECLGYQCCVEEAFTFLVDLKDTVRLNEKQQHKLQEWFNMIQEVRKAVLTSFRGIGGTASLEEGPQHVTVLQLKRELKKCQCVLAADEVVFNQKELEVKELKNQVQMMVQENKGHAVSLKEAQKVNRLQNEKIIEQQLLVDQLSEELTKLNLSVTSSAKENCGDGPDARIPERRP

FLAG-Kif7 (544-1343aa) = target: T4, FLAG-Kif7 (544-1343aa) (human, UniProt Q2M1P5 544-1343); experiment: pull-down on anti-FLAG beads, anti-c-myc blot, Expi293F cells
T4 construct: Expressed in Expi293F cells for the pull-down; also called C-terminal half of Kif7; not shown: FLAG tag from pCMV-BICEP-4 (MCS1), N-terminal by the name
T4 sequence: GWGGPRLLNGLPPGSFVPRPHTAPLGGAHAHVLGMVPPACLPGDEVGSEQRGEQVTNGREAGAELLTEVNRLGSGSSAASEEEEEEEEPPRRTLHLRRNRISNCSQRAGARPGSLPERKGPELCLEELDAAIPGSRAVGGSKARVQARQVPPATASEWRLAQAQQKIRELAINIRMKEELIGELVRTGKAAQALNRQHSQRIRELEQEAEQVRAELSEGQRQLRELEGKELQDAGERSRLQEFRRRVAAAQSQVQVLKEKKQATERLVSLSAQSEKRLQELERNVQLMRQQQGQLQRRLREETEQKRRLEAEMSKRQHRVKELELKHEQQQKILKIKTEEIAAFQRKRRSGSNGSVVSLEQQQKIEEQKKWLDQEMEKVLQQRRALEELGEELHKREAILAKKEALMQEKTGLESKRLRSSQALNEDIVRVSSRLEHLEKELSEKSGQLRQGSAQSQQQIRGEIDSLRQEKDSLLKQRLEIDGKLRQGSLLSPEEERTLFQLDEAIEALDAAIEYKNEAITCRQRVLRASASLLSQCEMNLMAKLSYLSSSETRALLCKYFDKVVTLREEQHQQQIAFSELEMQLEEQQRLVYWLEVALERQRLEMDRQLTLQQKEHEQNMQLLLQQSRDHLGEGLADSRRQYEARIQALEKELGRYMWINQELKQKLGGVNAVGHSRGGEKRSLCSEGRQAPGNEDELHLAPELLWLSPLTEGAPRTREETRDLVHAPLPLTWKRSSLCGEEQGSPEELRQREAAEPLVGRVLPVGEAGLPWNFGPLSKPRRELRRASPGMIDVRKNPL
Excerpt: as §1, §2

- binding result (c-Myc-Gli2 (595-1568aa)): no binding
B1: FLAG-Kif7 (1-543aa) (other)
chain: T2 sequence
notes: Expressed in Expi293F cells for the pull-down; also called N-terminal half of Kif7; Kif7-DM; not shown: FLAG tag from pCMV-BICEP-4 (MCS1), N-terminal by the name

- binding result (Kif7-DM (1-543aa)): binds
- binding result (Kif27-DM-GFP (1-580aa)): no binding
B2: Gli2-ZF-SNAP (other, human, UniProt P10070 418-604, looked up)
chain: KEDLDRDDCKQEAEVVIYETNCHWEDCTKEYDTQEQLVHHINNEHIHGEKKEFVCRWQACTREQKPFKAQYMLVVHMRRHTGEKPHKCTFEGCSKAYSRLENLKTHLRSHTGEKPYVCEHEGCNKAFSNASDRAKHQNRTHSNEKPYICKIPGCTKRYTDPSSLRKHVKTVHGPDAHVTKKQRNDVH
modifications: Alexa 647 dye on the SNAP tag in the TIRF assays
notes: Labeled with Alexa 647 for TIRF microscopy; used unlabeled (as far as told) for cryo-EM; also called Gli2-ZF-SNAP-Alexa 647; Gli2-ZF-Alexa 647; not shown: C-terminal SNAP tag

- binding result (FLAG-Kif7 (544-1343aa)): no binding
B3: c-Myc-Gli2 (1-594aa) (other, human, UniProt P10070 1-594, looked up)
chain: METSASATASEKQEAKSGILEAAGFPDPGKKASPLVVAAAAAAAVAAQGVPQHLLPPFHAPLPIDMRHQEGRYHYEPHSVHGVHGPPALSGSPVISDISLIRLSPHPAGPGESPFNAPHPYVNPHMEHYLRSVHSSPTLSMISAARGLSPADVAQEHLKERGLFGLPAPGTTPSDYYHQMTLVAGHPAPYGDLLMQSGGAASAPHLHDYLNPVDVSRFSSPRVTPRLSRKRALSISPLSDASLDLQRMIRTSPNSLVAYINNSRSSSAASGSYGHLSAGALSPAFTFPHPINPVAYQQILSQQRGLGSAFGHTPPLIQPSPTFLAQQPMALTSINATPTQLSSSSNCLSDTNQNKQSSESAVSSTVNPVAIHKRSKVKTEPEGLRPASPLALTQGQVSGHGSCGCALPLSQEQLADLKEDLDRDDCKQEAEVVIYETNCHWEDCTKEYDTQEQLVHHINNEHIHGEKKEFVCRWQACTREQKPFKAQYMLVVHMRRHTGEKPHKCTFEGCSKAYSRLENLKTHLRSHTGEKPYVCEHEGCNKAFSNASDRAKHQNRTHSNEKPYICKIPGCTKRYTDPSSLRKHVKTVHGPDAH
notes: Expressed in Expi293F cells for the pull-down; also called N-terminal half of Gli2; not shown: c-myc tag from pCMV-BICEP-4 (MCS2), N-terminal by the name
